Data as given in patent US20090068174A1, “THERAPEUTIC ALKALINE PROTEASE COMPOSITIONS AND USE IN FACILITATING THE TRANSPORT OF AGENTS ACROSS THE GASTROINTESTINAL MUCOSAL LINING” (Kansas University Medical Center Research Institute, Inc., priority 2007, published 2009).
“Also recorded” adds a separate entry of the source.

Columns and labels:
[1] = Biochemical properties of the purified proteases (Table 4): pH optimum, substrate specificity, metal requirements; details: established by inventors
human TNF-α [2] = target: T1, human TNF-α (Homo sapiens, UniProt P01375); assay: Human TNF-α hydrolysis (Western blotting); assay type: biochemical; details: 50 ng cytokine with 2.5, 5, 10 ng protease, overnight at 37° C., Western blot
Description: (§1) Effects of the purified A. oryzae proteases on human recombinant TNF-α: (A) protease powder prepared according to Example 1 (preparation); (B) alkaline protease; (C) 26 kDa protease; and (D) deuterolysin. 50 ng quantities of TNF-α were incubated at 37° C. for 18 hours with the indicated quantities of protease powder prepared according to Example 1, alkaline protease, 26 kDa protease or deuterolysin. Western blotting was then used to determine substrate specificity. C=control, buffer-treated TNF-α.
Human TNF-α is cleaved and inactivated by Aspergillus oryzae alkaline protease. Purified cytokine (50 ng) was first combined with the following amounts [2.5, 5, and 10 ng] of protease powder prepared according to Example 1 (preparation), as well as alkaline protease, 26 kDa protease, and deuterolysin prepared according to Example 2. Each mixture was incubated overnight at 37° C. and examined by Western blotting for evidence of proteolysis. […] Because the antibody used in this Western blot was specific for the carboxyl terminus of human TNF-α, these enzymes cleaved the cytokine at the amino terminus yielding a smaller peptide that retained the C-terminal epitope.

human TNF-α [3] = target: T1, human TNF-α; assay: Bioactivity of protease-treated human TNF-α in the C2C12 cell assay (nitrite); assay type: cell-based; set-up: key to Inactivation of Human TNF-α: +: Indicates that the protease inactivated the cytokine; ^a: Cleavage of the cytokine occurred without inactivation; details: for Effect on bioactivity of human TNF-α: C2C12 cells costimulated with mouse IFN-γ, nitrite
Description: Effects of purified A. oryzae proteases on the bioactivity of human TNF-α (A) protease powder prepared according to Example 1 (preparation); (B) alkaline protease; (C) 26 kDa protease; and (D) deuterolysin. 50 ng quantities of TNF-α were incubated at 37° C. for 24 hours with the indicated quantities (∘=buffer alone; […]=5 ng; ▪=10 ng) of: protease powder prepared according to Example 1 (preparation); alkaline protease; 26 kDa protease; and deuterolysin. The reactions were then stopped by addition of FBS and samples were added to C2C12 cells that had been costimulated with mouse IFN-γ. Twenty-four hours later, nitrite was measured in culture fluids.
Protease-treated human TNF-α was then tested for its bioactivity in the C2C12 cell assay. […] (FIG. 12A-D)
(§2) The protease powder prepared according to Example 1 inactivates mouse recombinant TNF-α by limited proteolysis. (FIG. 16 A-B) This property was established by measuring the loss of activity of TNF-α in a bioassay in which the cytokine was used to coactivate mouse myoblast C2C12 cells for the production of NO by transcriptional activation of the inducible NO synthase (iNOS) gene. The assay can be used to measure either TNF-α or IFN-γ activity by adding test samples containing one of the cytokines to cells stimulated with an excess of the other cytokine. Nitrite is a stable endproduct of NO produced by the cells. […] (FIG. 16A-B).

human IFN-γ = target: T2, human IFN-γ (Homo sapiens, UniProt P01579); assay: Human IFN-γ degradation (Western blotting); assay type: biochemical; details: Western blot, antibody to carboxyl terminus
T2 sequence (P01579 24-166): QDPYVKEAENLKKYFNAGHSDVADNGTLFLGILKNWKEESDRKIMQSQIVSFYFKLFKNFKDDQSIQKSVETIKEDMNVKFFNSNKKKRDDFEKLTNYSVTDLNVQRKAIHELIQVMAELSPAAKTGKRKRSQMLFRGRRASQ
Description: as §1, with “IFN-γ:” for “TNF-α:”, “(C) deuterolysin; and (D)” for “(C)”, “protease.” for “protease; and (D) deuterolysin.”, “human IFN-γ” for “TNF-α”, “preparation,” for “protease powder prepared according to Example 1,”, “IFN-γ.” for “TNF-α.”
Cleavage was evidenced by the disappearance of the native 17 kDa IFN-γ band, rather than the appearance of distinct cleavage peptides. Because the antibody used in this Western blot was specific for the carboxyl terminus of human IFN-γ, these enzymes attack the cytokine at the C terminus (e.g., there is a loss in reactivity with the anti-cytokine antibody, rather than the appearance of smaller peptide products).

mouse recombinant TNF-α = target: T3, mouse recombinant TNF-α (Mus musculus, UniProt P06804); assay: Bioactivity of protease-treated mouse TNF-α in the C2C12 cell bioassay (nitrite); assay type: cell-based; set-up: key to Inactivation of Mouse TNF-α: +: Indicates that the protease inactivated the cytokine; ^a: Cleavage of the cytokine occurred without inactivation; details: for Effect on bioactivity of mouse TNF-α: C2C12 cells, NO (nitrite) production
T3 sequence (P06804 80-235 limits assumed): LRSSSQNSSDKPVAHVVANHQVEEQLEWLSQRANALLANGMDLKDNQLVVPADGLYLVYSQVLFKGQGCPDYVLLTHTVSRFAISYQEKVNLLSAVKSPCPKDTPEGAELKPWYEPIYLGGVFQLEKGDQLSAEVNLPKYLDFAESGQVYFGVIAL
Description: Effects of three purified A. oryzae proteases on the bioactivity of mouse TNF-α (A) protease powder prepared according to Example 1 (preparation); (B) alkaline protease; (C) 26 kDa protease; and (D) deuterolysin. 50 ng quantities of TNF-α were incubated at 37° C. for 24 hours with the indicated quantities of the protease powder prepared according to Example 1 or one of the three purified proteases. The reactions were then stopped by addition of FBS and samples were added to C2C12 cells that had been costimulated with mouse IFN-γ. Twenty-four hours later, nitrite was measured in culture fluids.
The protease powder prepared according to Example 1 inactivates mouse recombinant TNF-α. 50 ng of the cytokine was treated for 24 hours with either 0 (□); 5 (∘); or 10 ng ([…]) of either Pseudomonas elastase (A) or protease powder prepared according to Example 1 (B). Then the residual bioactivity of the cytokine was measured by its ability to co-activate mouse C2C12 myoblast cells in the presence of excess IFN-γ for the production of NO (nitrite).
as §2
The three purified proteases were then compared for their ability to inactivate mouse TNF-α using the C2C12 cell bioassay.

[4] = Table 4, cited from earlier work

T1 sequence (P01375 77-233 limits assumed): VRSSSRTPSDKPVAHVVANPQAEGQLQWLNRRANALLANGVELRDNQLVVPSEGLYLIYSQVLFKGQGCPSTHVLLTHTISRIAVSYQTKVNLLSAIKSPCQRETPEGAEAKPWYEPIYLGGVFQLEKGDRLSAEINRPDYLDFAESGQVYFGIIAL

B1: Alkaline Protease: Aspergillus oryzae alkaline protease (oryzin), SEQ ID NO: 2, purified from the protease powder of Example 1 (protein, listed as Aspergillus oryzae)
chain: MQSIKRTLLLLGAILPAVLGAPVQETRRAAEKLPGKYIVTFKPGIDEAKIQEHTTWATNIHQRSLERRGATGGDLPVGIERNYKINKFAAYAGSFDDATIEEIRKNEDVAYVEEDQIYYLDGLTTQKSAPWGLGSISHKGQQSTDYIYDTSAGEGTYAYVVDSGVNVDHEEFEGRASKAYNAAGGQHVDSIGHGTHVSGTIAGKTYGIAKKASILSVKVFQGESSSTSVILDGFNWAANDIVSKKRTSKAAINMSLGGGYSKAFNDAVENAFEQGVLSVVAAGNENSDAGQTSPASAPDAITVAAIQKSNNRASFSNFGKVVDVFAPGQDILSAWIGSSSATNTISGTSMATPHIVGLSLYLAALENLDGPAAVTKRIKELATKDWKDVKGSPNLLAYNGNA
- Substrate specificity [1]: Protamine > casein,; also recorded: hemoglobin; val-leu-lys
- Cleavage of human TNF-α (human TNF-α [2]): produced a similar pattern of cleavage
- Effect on bioactivity of human TNF-α (human TNF-α [3]): selectively inactivated human TNF-α
- Inactivation of Human TNF-α (human TNF-α [3]; Table 7 summary): +
- Cleavage of human IFN-γ (human IFN-γ): did not cleave human IFN-γ
- Effect on bioactivity of mouse TNF-α (mouse recombinant TNF-α): dose-dependent inactivation of mouse TNF-α
- Inactivation of Mouse TNF-α (mouse recombinant TNF-α; Table 7 summary): +
- pI [4]: 6.53
- Heat stability ([4]; deuterolysin for 10 min, alkaline protease for 3 h): Stable at 37 °C

B2: 26 kDa Protease: A. oryzae protease cloned recently by Novozyme, labeled the 26 kDa protease, SEQ ID NO: 3 (protein, listed as Aspergillus oryzae)
chain: HASADAWASSKAISSTSSPSSFKMRFISVSSLLLALAPALNAVPVEVAGSAQGLDVTLSQVGNTRIKAWKNTGSEDVTFVHLNFFKDAAPVQKVSLFRNATEVQFQGIKQRLITEGLSDDALTTLAPGATIEDEFDIASTSDLSEGGTITINSNGLVPITTDNKVTGYIPFTSNELSIDVDAAEAASVTQAVKILERRTKVTSCSGSRLSALQTALRNTVSLARAAATAAQSGSSSRFQEYFKTTSSSTRSTVAARLNAVANEAASTSSGSTTYYCSDVYGYCSSNVLAYTLPSYNIIANCDLYYSYLPALTSTCHAQDQATTTLHEFTHAPGVYSPGTDDLGYGYSAATALSASQALLNADTYALFANAVNLNC
- Substrate specificity [1]: protamine
- Cleavage of human TNF-α (human TNF-α [2]): to a lesser extent
- Effect on bioactivity of human TNF-α (human TNF-α [3]): did not significantly alter the biological activity of the cytokine
- Cleavage of human IFN-γ (human IFN-γ): cleave human IFN-γ
- Effect on bioactivity of mouse TNF-α (mouse recombinant TNF-α): devoid of such activity
- pI [4]: 6.72
